Test results reported in paper PMC2674534.

Target: Sox9 (UniProt Q04887 1-507)
Test: EMSA

Chain of Sox9 (Q04887 whole entry): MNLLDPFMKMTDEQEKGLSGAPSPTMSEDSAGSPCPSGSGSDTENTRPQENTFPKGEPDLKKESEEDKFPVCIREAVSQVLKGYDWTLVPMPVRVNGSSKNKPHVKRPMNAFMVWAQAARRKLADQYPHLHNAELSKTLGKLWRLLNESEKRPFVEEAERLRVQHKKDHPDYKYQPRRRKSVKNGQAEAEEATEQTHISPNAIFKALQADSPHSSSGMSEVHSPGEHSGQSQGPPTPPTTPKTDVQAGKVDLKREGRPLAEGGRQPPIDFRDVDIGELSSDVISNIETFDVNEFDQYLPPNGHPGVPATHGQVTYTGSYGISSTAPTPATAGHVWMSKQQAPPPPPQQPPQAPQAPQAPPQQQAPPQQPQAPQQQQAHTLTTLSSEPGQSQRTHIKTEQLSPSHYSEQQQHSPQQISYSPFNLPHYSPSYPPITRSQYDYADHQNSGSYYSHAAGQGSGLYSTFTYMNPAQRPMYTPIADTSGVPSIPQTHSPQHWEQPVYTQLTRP

B1: Col2a1 enhancer probe (Sox9-binding site) (dsDNA)
DNA 1: GCGCTTGAGAAAAGCCCCATTCATGAGAGGC
DNA 2: GCCTCTCATGAATGGGGCTTTTCTCAAGCGC
  binding result: binds
